The series deals with the molecule itself. Kind of series: crystal structure.

This is an account of results in PMC8274395 (Biochemistry, 2021).

B1: Cj1441, UDP-glucose 6-dehydrogenase from Campylobacter jejuni NCTC 11168 (enzyme)
chain: MKIVIVGIGYVGLANAILFSKNNENEVVLLDIDENKIQSINNHKSPIKDKLIEKFFVQNISKLHATSNIKEAYFNADFAVIATPTDYDEQLNFFDTRSIENVLKDIKNINSKINVIIKSTVPIGYTKTIKQKFNMSNIVFSPEFLREGSALYDSLYPSRIIIGDKSVLGKTIGDLFLKNIEKKNVDIFYMDSDEAESVKLFSNTYLAMRVGFFNEVDSYARKHNLNSADIIKGISADDRIGKYYNNPSFGYGGYCLPKDTKQLLANFYNIPNSLIKAIVETNEIRKKFITQLILEKKPNILGIYRLIMKQNSDNFRNSVIIDIIKYLQEYNSNIELIIYEPLVKEKKFLNIKVENDFNVFGAKVDLIIANRFDDKLKEIKDKVFSADVFYTDI
Turning to B1, the binding result is given as “binds”.
